# From patent US20070059756A1, “Immunointeractive molecules and their uses in treating subjects suffering from Hev b 5 allergies” (priority 1999, published 2007)
# B1: rHev b 5/MBP: recombinant Hev b 5 as maltose binding protein (MBP) fusion protein (protein)
# chain: ASVEVESAATALPKNETPEVTKAEETKTEEPAAPPASEQETADATPEKEEPTAAPAEPEAPAPETEKAEEVEKIEKTEEPAPEADQTTPEEKPAEPEPVAEEEPKHETKETETEAPAAPAEGEKPAEEEKPITEAAETATTEVPVEKTEE
# modifications: left off: large carriers; small tags and cut ends
# Columns and labels:
# PBMC = assay: Primary culture PBMC proliferation (polyclonal response); format: cell-based, human; conditions: primary cultures of PBMC
# Procedure: Latex specific T cell lines were isolated using our well established methods for the generation of allergen specific oligoclonal T cell populations (O'Hehir et al., 1987). An initial primary culture was performed for each patient to determine the optimal concentration of LAL for stimulation. For this, peripheral blood mononuclear cells (PBMC) separated from heparinised venous blood by density centrifugation (2×10^5/well) were stimulated with LAL over a concentration range 0.03 to 100 μg/ml, with control cultures of PBMC alone or stimulated with tetanus toxoid. All cultures were maintained in complete medium (RPMI-1640, Gibco Life Technologies supplemented with 2 mmol/L L-glutamine, 100 IU/ml penicillin-streptomycin and 5% screened, heat inactivated human AB serum [Sigma]). […] Therefore, to generate T cell lines, PBMC (2.5×10^6/well) were stimulated for 1 week with LAL at a concentration of 20 μg/ml in 24-well tissue culture plates (Costar, USA). After 7 days, lymphoblasts (1×10^6/well) were restimulated for one week with LAL at a concentration of 20 μg/ml in the presence of an equal number of irradiated (3000 rad) autologous PBMC as antigen presenting cells (APC). On days 2 and 4, cultures were supplemented with Lymphocult-T (5% v/v; Biotest Folex, Germany) and fresh medium. […]
# serum IgE = assay: Dot immunoblot of patient serum IgE reactivity; format: binding, human; conditions: sera of latex allergic patients 1-6
# Procedure: Patient serum IgE reactivity to latex allergens was analysed by dot immunoblots. LAL (25 μg), rHev b 5/MBP (7 μg) and MBP (4.5 μg) were applied side by side on a nitrocellulose membrane (Schleichner and Schuell, Germany) in a 5 μl volume and allowed to soak in. The amount of MBP was estimated to be equivalent to that in the rHev b 5/MBP aliquot. The membrane was then blocked, incubated in patient sera and IgE binding detected according to our established protocols (Suphioglu et al., 1993). Briefly, the blots were blocked in 10% w/v skim milk powder in PBS and washed once in PBS containing 0.2% v/v Tween 20 and twice in PBS alone. Blots were then incubated in patients' sera (diluted 1:4 in PBS/0.5% BSA) overnight at room temperature with shaking before washing as described above. Finally, IgE antibody binding was detected by incubation in rabbit anti-human IgE (Dako, Denmark) followed by horse radish peroxidase-labelled anti-rabbit antibodies (Promega, USA), washing in between, and developing in the substrate 4-chloro-1-napthol (Sigma) after the final wash.
# [1] = test system: house dust mite specific three-week T cell line; format: cell-based
# Procedure: Mitogenicity of latex antigens was excluded by testing the ability of LAL, rHev b 5/mBP and Hev b 5 peptides to stimulate a house dust mite specific three-week T cell line. No reactivity to latex allergens was observed (data not shown). Toxicity was assessed by coculturing the same antigens with house dust mite specific T cells in the presence of Lymphocult-T at 10 IU/ml.
# [2] = test system: latex specific T cell lines; assay: Oligoclonal T cell proliferation assay (3H-thymidine incorporation); format: cell-based, human; conditions: for Oligoclonal proliferative response: antigen 10 μg/ml, 4 day cultures
# Procedure: Latex specific T cell lines were isolated using our well established methods for the generation of allergen specific oligoclonal T cell populations (O'Hehir et al., 1987). An initial primary culture was performed for each patient to determine the optimal concentration of LAL for stimulation. For this, peripheral blood mononuclear cells (PBMC) separated from heparinised venous blood by density centrifugation (2×10^5/well) were stimulated with LAL over a concentration range 0.03 to 100 μg/ml, with control cultures of PBMC alone or stimulated with tetanus toxoid. All cultures were maintained in complete medium (RPMI-1640, Gibco Life Technologies supplemented with 2 mmol/L L-glutamine, 100 IU/ml penicillin-streptomycin and 5% screened, heat inactivated human AB serum [Sigma]). […] Therefore, to generate T cell lines, PBMC (2.5×10^6/well) were stimulated for 1 week with LAL at a concentration of 20 μg/ml in 24-well tissue culture plates (Costar, USA). After 7 days, lymphoblasts (1×10^6/well) were restimulated for one week with LAL at a concentration of 20 μg/ml in the presence of an equal number of irradiated (3000 rad) autologous PBMC as antigen presenting cells (APC). On days 2 and 4, cultures were supplemented with Lymphocult-T (5% v/v; Biotest Folex, Germany) and fresh medium. At the end of the second week, lymphoblasts were restimulated for one week with rhev b 5/MBP at a concentration of 20 μg/ml as described above. Oligoclonal T cells were recovered, washed and tested in proliferation and cytokine assays (as described below) either fresh or after cryopreservation in liquid nitrogen. We have previously shown that CD4^+ T cells are preferentially expanded in these cultures.
# Oligoclonal T cell blasts (5×10^4) were incubated in 96-well round bottom plates (Linbro, ICN Biomedicals, USA) in triplicate with equal numbers of irradiated APC in the presence of LAL at concentrations ranging from 0.03-100 μg/ml, rHev b 5/MBP (10 and 20 μg/ml), MBP (10 and 20 μg/ml), overlapping peptides of the Hev b 5 sequence (10 and 30 μg/ml), Lymphocult-T (10 IU/ml) or PHA (3 μg/ml). Cultures of T cells and APC in the absence of antigen, T cells alone and APC alone in the absence of antigen were included as controls. After 72 hours cultures were pulsed with 1 μCi of ^3H-thymidine (^3HTdR; Du Pont, NEN) and harvested 12-16 hours later. Proliferation as correlated with ^3HTdR incorporation was measured by liquid scintillation spectroscopy. Results are expressed as mean counts per minute (cpm) for triplicate cultures with standard deviation (SD; ±20% for all experiments).
# [3] = Immune response of mice immunised with rHev b 5/MBP (serum ELISA); format: in vivo, BALB/c mice; conditions: 20 μg/injection IP; serum ELISA against rHev b 5/MBP, MBP and NAL
# Procedure: Monoclonal antibody production was carried out based on the method of Köhler and Milstein (Köhler et al., 1975) according to established protocols (Goding, 1996). Six to 8 week old female BALB/c mice were immunised intraperitoneally (IP) with 20 μg/injection of rHev b 5/MBP diluted in 200 μl of phosphate buffered saline (PBS). The first injection was given with an equal volume (200 μl) of Complete Freund's Adjuvant (Sigma, USA), and the second with 200 μl of Incomplete Freund's Adjuvant (Sigma, USA). The subsequent 4 immunisations were given in phosphate buffered saline (PBS) alone. The initial 2 immunisations were given at a 2 weekly interval; the remainder were given at monthly intervals, with 100 μl of whole blood being taken before the first immunisation and at 5 days following each immunisation (except for the first) to monitor the immune response. The blood was then centrifuged, the serum removed, and aliquotted at −20° C. for later analysis using enzyme linked immunosorbent assay (ELISA) as below. The final booster immunisation of 20 μg of rHev b 5/MBP in 200 μl PBS was given IP 3 days before the mouse was humanly killed and the spleen aseptically removed, macerated and then fused with 10^7 murine myeloma cells (X-63.Ag8 cell line, generous gift of Professor Jim Goding). […] Colour development was then observed and the plate read at […]. […]
molecule,measurement,setting,value
B1,polyclonal PBMC response (in words),PBMC,considerably less than those to LAL
same,serum IgE reactivity,serum IgE,"patients 1, 2, 3, 4 and 5 showed IgE reactivity"
same,mitogenicity: stimulation of house dust mite specific T cell line,[1],No reactivity
same,Oligoclonal proliferative response,[2]; P1 T cell line,9.0 counts per minute × 10^−3
same,Oligoclonal proliferative response,[2]; P2 T cell line,5.7 counts per minute × 10^−3
same,oligoclonal proliferative response (in words),[2]; three-week latex specific T cell lines,significantly higher than those of MBP alone
same,immune response of immunised mice,[3],strong polyclonal immune response
